# From article PMC3759425, “Insights into the Cross-Immunity Mechanism within Effector Families of Bacteria Type VI Secretion System from the Structure of StTae4-EcTai4 Complex” (PLoS ONE, 2013)
# B1: EcTai4 (type VI amidase immunity 4 from Enterobacter cloacae), residues 19-117 (domain or fragment)
# chain: QTLPDISTFSQQQIFENWVQNRCIGKIADSKSLKEDADASAAAWLEASNLPAENFEKADEVIVSLLKQKVGGTEPGHYQILKCTLIANSDAIRPLKSSK
# notes: Tai4, type VI amidase immunity 4, E. cloacae, residues 19-117 without the N-terminal 18-residue signal peptide, amplified from genomic DNA; pET21a; Se-Met-labelled protein was used for the crystal structure; The construct of the His-EcTai4 of the pull-down is not described on its own; also called His-EcTai4; His-tag EcTai4; source: E. coli BL21 (DE3), co-expressed with StTae4, purified (crystal, …)
# B2: StTae4 (type VI amidase effector 4 from Salmonella typhimurium) (enzyme)
# chain: MNRPSFNEAWLAFRKVNHSVADVGSIIGGNVGKNITGGYFQNACPIRMSYVLNATGFPIARNSPYAKVSGADNKFYIYRVNDMIDYLTHTMGKPDLIVNNPKQSDFIGKKGIIVVKGHGWSNARGHVTLWNGSICSDQCHLLNDPDNGPFVPEVGTLWILP
# notes: Tae4, type VI amidase effector 4, S. Typhimurium, full length, amplified from genomic DNA; cloned into NcoI/XhoI of pET28at-plus (introduces an N-terminal TEV cleavage site); Se-Met-labelled protein was used for the crystal structure; The vector adds an N-terminal TEV cleavage site; the pull-down methods call the effectors 'native effector proteins'; source: E. coli BL21 (DE3), co-expressed with …
# Key:
# [1] = molecular target: the molecule itself; assay: SAXS; purified complex in solution at 1, 3 and 5 mg/ml; theoretical curve of one tetramer of the crystal fitted to the experimental data, discrepancy 1.625
# [2] = molecular target: B1; assay: as above; conditions: both partners purified
Binder,stoichiometry N [1],stoichiometry N [2]
B1,2,–
B2,–,2 Tae4 molecules per Tai4 homodimer
